Key:
Conditions in all cases: protein: recombinant; tags: His6-MBP N-terminal, removed by TEV; label: 5'-FAM; hairpin
hsTFB1M Q177A = hsTFB1M Q177A (Homo sapiens, UniProt Q8WVM0 28-346, Q177A); assay: EMSA; affinity improved to some degree; EMSA: 50 mM Tris-HCl pH 8.0, 25 mM NaCl, 100 nM RNA, TFB1M 0-2 mM as printed (legend suggests uM), 37 C 30 min; 6% native PAGE, 0.5x TBE
hsTFB1M E179A = hsTFB1M E179A (Homo sapiens, UniProt Q8WVM0 28-346, E179A); assay: as above
hsTFB1M Q35A = hsTFB1M Q35A (Homo sapiens, UniProt Q8WVM0 28-346, Q35A); assay: EMSA; affinity not significantly changed vs WT; EMSA: 50 mM Tris-HCl pH 8.0, 25 mM NaCl, 100 nM RNA, TFB1M 0-2 mM as printed (legend suggests uM), 37 C 30 min; 6% native PAGE, 0.5x TBE
hsTFB1M V225A = hsTFB1M V225A (Homo sapiens, UniProt Q8WVM0 28-346, V225A); assay: as above
hsTFB1M F144A = hsTFB1M F144A (Homo sapiens, UniProt Q8WVM0 28-346, F144A); assay: as above
hsTFB1M N36A = hsTFB1M N36A (Homo sapiens, UniProt Q8WVM0 28-346, N36A); assay: as above
hsTFB1M E246A = hsTFB1M E246A (Homo sapiens, UniProt Q8WVM0 28-346, E246A); assay: EMSA; affinity not impaired; EMSA: 50 mM Tris-HCl pH 8.0, 25 mM NaCl, 100 nM RNA, TFB1M 0-2 mM as printed (legend suggests uM), 37 C 30 min; 6% native PAGE, 0.5x TBE
hsTFB1M I152A = hsTFB1M I152A (Homo sapiens, UniProt Q8WVM0 28-346, I152A); assay: as above
hsTFB1M R195A = hsTFB1M R195A (Homo sapiens, UniProt Q8WVM0 28-346, R195A); assay: as above

Measured: binding result

Sequence of hsTFB1M N36A (Q8WVM0 28-346 N36A): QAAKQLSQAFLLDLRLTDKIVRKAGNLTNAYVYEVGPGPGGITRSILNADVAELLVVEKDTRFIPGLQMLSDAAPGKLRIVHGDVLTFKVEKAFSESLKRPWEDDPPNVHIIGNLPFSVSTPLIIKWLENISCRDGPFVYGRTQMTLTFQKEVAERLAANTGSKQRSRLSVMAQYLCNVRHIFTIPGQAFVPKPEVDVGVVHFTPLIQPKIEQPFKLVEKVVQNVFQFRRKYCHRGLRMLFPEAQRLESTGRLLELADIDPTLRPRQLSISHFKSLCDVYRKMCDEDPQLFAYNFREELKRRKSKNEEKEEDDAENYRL
Sequence of hsTFB1M E179A (Q8WVM0 28-346 E179A): as the sequence (Q8WVM0 28-346 N36A) above, with A9N, E152A counted along it
Sequence of hsTFB1M F144A (Q8WVM0 28-346 F144A): as the sequence (Q8WVM0 28-346 N36A) above, with A9N, F117A counted along it
Sequence of hsTFB1M Q177A (Q8WVM0 28-346 Q177A): as the sequence (Q8WVM0 28-346 N36A) above, with A9N, Q150A counted along it
Sequence of hsTFB1M V225A (Q8WVM0 28-346 V225A): as the sequence (Q8WVM0 28-346 N36A) above, with A9N, V198A counted along it
Sequence of hsTFB1M R195A (Q8WVM0 28-346 R195A): as the sequence (Q8WVM0 28-346 N36A) above, with A9N, R168A counted along it
Sequence of hsTFB1M Q35A (Q8WVM0 28-346 Q35A): as the sequence (Q8WVM0 28-346 N36A) above, with Q8A, A9N counted along it
Sequence of hsTFB1M I152A (Q8WVM0 28-346 I152A): as the sequence (Q8WVM0 28-346 N36A) above, with A9N, I125A counted along it
Sequence of hsTFB1M E246A (Q8WVM0 28-346 E246A): as the sequence (Q8WVM0 28-346 N36A) above, with A9N, E219A counted along it

GGUAAGUGUACUGGAAAGUGCACUUGCC (structured_RNA) [5'-FAM h45 RNA (WT)]
binds: all assays above
